Residue numbers refer to the chain shown, from its start.
B1: NIH-CoVnb-103 (VHH)
VHH: DVQLQESGGGLVQPGGSLRLSCAASGLTLDYYTIGWFRQAPGKEREGVSCISSSDDSTYYADSVKGRFTISRDNAKNTVYLQMNSLKPEDTAVYYCATAPGTYYKGSYYPMCHYYGMDYWGKGTQVTVSS
B2: NIH-CoVnb-113 (VHH)
VHH: DVQLQESGGGLVQPGGSLRLSCAASGLTLDYYAIGWFRQAPGKEREGVSCISSSDGSTYYADSVKGRFTTSRDNAKNTVYLQMNSLKPEDTAVYYCAAVPSTYYSGTYYYTCHPGGMDYWGKGTLVTVSS
B3: NIH-CoVnb-109 (VHH)
VHH: B2 VHH with P14S, L27F, S52T, S53N, A98S, V99F, T107S, L125Q
B4: NIH-CoVnb-108 (VHH)
VHH: B2 VHH with L27F, S53N, D55G, T107S, L125Q

Each binder was assayed against T1, Biotinylated SARS-CoV-2 S protein RBD with a C-terminal AviTag (SARS-CoV-2, UniProt P0DTC2 319-541) (assay: BLI).

| Binder | koff |
| --- | --- |
| B1 | 0.00286 s⁻¹ |
| B2 | 0.000804 s⁻¹ |
| B3 | 0.00188 s⁻¹ |
| B4 | 0.00109 s⁻¹ |

Biological target: T1, Biotinylated SARS-CoV-2 S protein RBD …
Experiment: BLI
Remark: another data set of the same source

| Binder | Kd |
| --- | --- |
| B1 | 9.43 nM |
| B2 | 8.19 nM |
| B3 | 58.5 nM |
| B4 | 26.6 nM |
